Laboratory results taken from patent US20210379147A1, “METHOD AND SYSTEM FOR TREATING CANCER UTILIZING TINAGL1” (The Trustees of Princeton University, priority 2018, published 2021).

Tests used:
EGFR dimerization = target: T1, EGFR dimerization (Homo sapiens, UniProt P00533); experiment: EGFR dimerization in LM2 cells (co-IP of EGFR-GFP/EGFR-Myc; DSS cross-linking); assay type: cell-based; details: 1 μg/ml r-Tinagl1 1 hr
T1 construct: host or cells: LM2
Protocol: FIG. 14A is an image of WB analyses where LM2 cells were transfected with plasmids to overexpress GFP-EGFR and EGFR-Myc. 48 hr after transfection, the cells were treated with or without 1 μg/ml of r-Tinagl1 for 1 hr, followed by 10 min of 1 ng/ml EGF treatment, then collected and immunoprecipitated with either IgG or anti-Myc antibody, after which the IP samples were subjected to WB analysis.
FIG. 14B is a graph illustrating the quantified amount of EGFR-GFP that interacts with EGFR-Myc, normalized to PBS treatment group.
FIG. 14C is an image of WB analyses where LM2 cells stably expressed EGFR-Myc were pretreated with PBS or 1 μg/ml of r-Tinagl1 for 1 hr, treated with 1 ng/ml of EGF for another 10 min, then cells were collected and the dimers were cross-linked with disuccinimidyl suberate (DSS) treatment, followed by WB analysis.
FIG. 14D is a graph illustrating the ratio of dimerized EGFR in each treatment group that was quantified.
Whether Tinagl1 prevents EGFR dimerization independent of interfering with EGF binding to EGFR was tested. […] To further validate this conclusion, LM2 cells with EGFR-Myc stably expressed were treated with EGF or r-Tinagl1 alone or combination. […]
The assay was performed as previously described (Wang et al., 2015). […] Finally, the cells were then lysed with IP lysis buffer for 20 min on ice, and EGFR dimerization was analyzed by WB.

EGFR and FAK pathways = experiment: EGFR and FAK pathway activation in SUM159-M1a cells on FN (WB, FIG. 12); assay type: cell-based, human
Protocol: FIG. 12 is an image of WB analyses where a 6-well plate was coated with 10 μg/ml of FN or 10 μg/ml of FN+r-Tinagl1, then SUM159-M1a cells were serum starved for 24 hr, and then seeded on the plate with the media contain 10% FBS and 1 ng/ml of EGF, and then 3 hr after seeding, the cells were treated with […] FAK inhibitor 14 (FAKi) for 2 hr, followed by 1 hr treatment of 100 nM Erlotinib (Erlo), 1 μg/ml r-Tinagl1 alone or combined, and finally the cells were treated with 1 ng/ml of EGF for another 10 min, and then collected for WB analysis.
Furthermore, p-AKT and p-ERK levels were lowered in r-Tinagl1 treated samples that samples treated with either FAK inhibitor 14 (FAKi) and or EGFR inhibitor Erlotinib (Erlo) alone.

B1: r-Tinagl1: full length recombinant human Tinagl1 with 6×His tag at the C-terminus [SEQ ID NO.: 24], expressed in HEK293T cells (protein, listed as Homo sapiens)
chain: MWRCPLGLLLLLPLAGHLALGAQQGRGRRELAPGLHLRGIRDAGGRYCQEQDLCCRGRADDCALPYLGAICYCDLFCNRTVSDCCPDFWDFCLGVPPPFPPIQGCMHGGRIYPVLGTYWDNCNRCTCQENRQWQCDQEPCLVDPDMIKAINQGNYGWQAGNHSAFWGMTLDEGIRYRLGTIRPSSSVMNMHEIYTVLNPGEVLPTAFEASEKWPNLIHEPLDQGNCAGSWAFSTAAVASDRVSIHSLGHMTPVLSPQNLLSCDTHQQQGCRGGRLDGAWWFLRRRGVVSDHCYPFSGRERDEAGPAPPCMMHSRAMGRGKRQATAHCPNSYVNNNDIYQVTPVYRLGSNDKEIMKELMENGPVQALMEVHEDFFLYKGGIYSHTPVSLGRPERYRRHGTHSVKITGWGEETLPDGRTLKYWTAANSWGPAWGERGHFRIVRGVNECDIESFVLGVWGRVGMEDMGHHVDHHHHHH
modifications: C-terminal 6xHis tag
Question: How did the “amount of EGFR-GFP bound by EGFR-Myc” value (EGFR dimerization; in the presence of EGF) turn out when B1 was run?
Answer: significantly reduced the amount of EGFR-GFP bound by EGFR-Myc

Question: And the “dimer form of EGFR (DSS cross-linking)” value (EGFR dimerization; then EGF)?
Answer: reduced

Question: And the “activation of EGFR and FAK pathways (p-EGFR, p-FAK, p-ERK, p-AKT)” value (EGFR and FAK pathways; 1 μg/ml r-Tinagl1, 1 hr)?
Answer: inhibited the activation of both EGFR and FAK pathways

Question: What about the “p-AKT and p-ERK levels versus FAKi or Erlo alone” value (EGFR and FAK pathways; FAKi, 100 nM Erlo, 1 μg/ml r-Tinagl1) of the same molecule?
Answer: lowered
